From patent publication US20040214230A1

B1: rat GALP (peptide)
peptide: APAHRGRGGWTLNSAGYLLGPVLHLSSKANQGRKTDSALEILDLWKAIDGLPYSRSPRMT
B2: human GALP (peptide)
peptide: APAHRGRGGWTLNSAGYLLGPVLHLPQMGDQDGKRETALEILDLWKAIDGLPYSHPPQPS
B3: porcine GALP (peptide)
peptide: APVHRGRGGWTLNSAGYLLGPVLHPPSRAEGGGKGKTALGILDLWKAIDGLPYPQSQLAS

Molecular target: monoclonal antibody GR-1Ca
Assay: competitive EIA: GALP varied against HRP-labeled [Cys^43] rat GALP (43-60); GR-1Ca solution of 80 ng/ml on anti-mouse immunoglobulin plate

**Q.** For B1, which IC50 is on record?
**A.** Its IC50 is 3 nM.

**Q.** With B2 as the binder, how does the IC50 read?
**A.** The IC50 was 7 nM.

**Q.** Which IC50 does the source give for B3 here?
**A.** Its IC50 is 8 nM.

Molecular target: monoclonal antibody GR-2Ca
Assay: competitive EIA: GALP varied against HRP-labeled [Cys^43] rat GALP (43-60); GR-2Ca solution of 80 ng/ml on anti-mouse immunoglobulin plate

**Q.** How did the IC50 turn out when B1 was run?
**A.** Its IC50 is 10 nM.

**Q.** For B2, which IC50 is on record?
**A.** Its IC50 is 20 nM.

**Q.** With B3 as the binder, how does the IC50 read?
**A.** Its IC50 is 500 nM.
